Source: article PMC4837482, “The complex binding mode of the peptide hormone H2 relaxin to its receptor RXFP1” (Nature Communications, 2016)
Numbering of substitutions follows the chain as printed.

Experiments:
Assay in all cases: cAMP activity assay (pCRE β-galactosidase reporter), transfected HEK293T cells
Format in all cases: cell-based
RXFP1 D42A = target: T1, RXFP1 D42A (Homo sapiens, UniProt Q9HBX9, D64A); settings: construct D42A
T1 construct: transiently transfected human embryonic kidney (HEK) 293T cells expressing full-length RXFP1 and mutants; expressed in transfected cells; host or cells: HEK293T
T1 sequence (Q9HBX9 23-757 D64A limits assumed): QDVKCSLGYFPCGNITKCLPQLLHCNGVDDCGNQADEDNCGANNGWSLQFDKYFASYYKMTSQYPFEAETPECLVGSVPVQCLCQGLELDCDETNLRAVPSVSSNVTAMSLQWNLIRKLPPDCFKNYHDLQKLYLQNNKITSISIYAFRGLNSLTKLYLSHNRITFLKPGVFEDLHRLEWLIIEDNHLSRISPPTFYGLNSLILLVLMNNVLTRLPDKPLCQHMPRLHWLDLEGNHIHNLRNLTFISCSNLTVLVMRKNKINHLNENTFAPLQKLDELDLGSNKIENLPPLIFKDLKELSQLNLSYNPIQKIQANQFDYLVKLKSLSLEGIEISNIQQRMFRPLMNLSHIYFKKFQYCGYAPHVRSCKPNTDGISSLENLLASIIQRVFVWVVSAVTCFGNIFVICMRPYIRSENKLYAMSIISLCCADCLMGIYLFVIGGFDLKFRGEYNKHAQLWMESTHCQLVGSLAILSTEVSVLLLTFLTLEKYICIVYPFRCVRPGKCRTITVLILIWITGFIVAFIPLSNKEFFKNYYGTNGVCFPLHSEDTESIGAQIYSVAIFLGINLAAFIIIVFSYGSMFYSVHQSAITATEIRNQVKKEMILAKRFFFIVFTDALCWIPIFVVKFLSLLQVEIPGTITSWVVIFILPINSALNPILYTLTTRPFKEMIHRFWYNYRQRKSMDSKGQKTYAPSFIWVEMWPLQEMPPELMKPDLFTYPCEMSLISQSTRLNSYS
Method in brief: (§1)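 H2 relaxin dilutions in minimal media with 1% DMSO; 5 μM Forskolin as positive control, media/1% DMSO as negative. After freezing at −80 °C, cells lysed in pH 8.0 phosphate buffers and chlorophenol red-β-D-galactopyranoside added; absorbance read at 570 nm. Responses given as % of 5 μM Forskolin maximum.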

RXFP1 N44A = target: T2, RXFP1 N44A (Homo sapiens, UniProt Q9HBX9, N66A); settings: construct N44A, ±s.e.m.
T2 construct: transiently transfected human embryonic kidney (HEK) 293T cells expressing full-length RXFP1 and mutants; expressed in transfected cells; host or cells: HEK293T
T2 sequence (Q9HBX9 23-757 N66A limits assumed): T1 sequence (Q9HBX9 23-757 D64A limits assumed) with A42D, N44A
Method in brief: as §1

RXFP1 G45W46-AA = target: T3, RXFP1 G45W46-AA (Homo sapiens, UniProt Q9HBX9, G67A/W68A)
T3 construct: transiently transfected human embryonic kidney (HEK) 293T cells expressing full-length RXFP1 and mutants; expressed in transfected cells; host or cells: HEK293T
T3 sequence (Q9HBX9 23-757 G67A/W68A limits assumed): T1 sequence (Q9HBX9 23-757 D64A limits assumed) with A42D, G45A, W46A
Method in brief: as §1

Substance: H2 relaxin: two-chain 6-kDa peptide hormone structurally related to insulin; recombinant human gene-2 H2 relaxin provided by Corthera
- H2 relaxin pEC50 (RXFP1 D42A): <6 (4)
- H2 relaxin pEC50 (RXFP1 N44A; cAMP reporter): 11.0±0.1 (4)
- H2 relaxin Emax (RXFP1 N44A; percentage of maximum response to 5 μM Forskolin): 92.16±6.98 (4) %
- H2 relaxin-stimulated cAMP activity (RXFP1 G45W46-AA; G45A/W46A RXFP1): virtually unable to signal
- H2 relaxin pEC50 (RXFP1 G45W46-AA; construct G45W46-AA, cAMP reporter): <6 (3)
